Data published in US20030022283A1 (published 2003).
Changes are numbered by the printed parent chain. Where “and” joins values, the source holds several entries; their conditions need not be identical. Equal entries are not always repeated.

Tests used:
[1] = target: T1, Rat Y4/PP1 receptor (clone) (rat, UniProt Q63447 1-375); assay: competition with rat [125I]PP, rat Y4/PP1 clone
T1 construct: also called Rat Y4/PP1 (clone)

[2] = target: T2, Rat NPY Y5 receptor, Y861 clone (rat, UniProt Q63634 1-445); assay: competition with [125I]PYY, rat Y5 Y861 clone
T2 sequence: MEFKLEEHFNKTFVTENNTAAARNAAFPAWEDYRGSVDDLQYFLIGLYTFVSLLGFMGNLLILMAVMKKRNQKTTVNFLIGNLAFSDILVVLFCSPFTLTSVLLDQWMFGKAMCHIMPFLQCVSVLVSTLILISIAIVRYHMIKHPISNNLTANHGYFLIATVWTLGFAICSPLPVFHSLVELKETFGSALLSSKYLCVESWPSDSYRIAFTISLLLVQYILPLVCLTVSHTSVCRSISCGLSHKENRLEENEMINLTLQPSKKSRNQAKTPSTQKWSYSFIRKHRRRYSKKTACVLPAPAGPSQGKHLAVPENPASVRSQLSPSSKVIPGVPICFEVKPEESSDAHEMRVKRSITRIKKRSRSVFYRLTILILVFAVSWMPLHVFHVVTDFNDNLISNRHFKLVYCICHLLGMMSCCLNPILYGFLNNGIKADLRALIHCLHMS

[3] = target: Rat NPY Y5 receptor, 6B clone (Y217.24.13.6B) (rat) (UniProt Q63634); assay: competition with [125I]PYY, membranes of transiently transfected COS-7 cells, one of the two experiments averaged
[4] = target: Rat NPY Y5 receptor, Y555 clone (rat) (UniProt Q63634); assay: as above
[5] = target: T2, Rat NPY Y5 receptor, Y861 clone; assay: as above
[6] = target: Rat NPY Y5 receptor, Y555 clone (rat) (UniProt Q63634); assay: competition with [125I]PYY, membranes of transiently transfected COS-7 cells, average of two experiments
[7] = target: Y5 receptor (clone not specified), transiently expressed in COS-7 cells; assay: saturation binding, membranes of transiently transfected cells, nonlinear regression
[8] = target: T2, Rat NPY Y5 receptor, Y861 clone; assay: competition with [125I]PYY, membranes of stably transfected 293S cells
[9] = target: T2, Rat NPY Y5 receptor, Y861 clone; assay: competition with [125I]PYY, membranes of transiently transfected COS-7 cells
[10] = target: T2, Rat NPY Y5 receptor, Y861 clone; assay: competition with [125I]PYY, membranes of transiently transfected COS-7 cells, average of two experiments
[11] = target: Human NPY Y5 receptor (human) (UniProt Q15761); assay: competition with [125I]PYY, membranes of transiently transfected cells, one of the two experiments averaged
[12] = target: T2, Rat NPY Y5 receptor, Y861 clone; assay: cell-based or functional assay
Human NPY Y5 receptor [13] = target: T3, Human NPY Y5 receptor (human, UniProt Q15761 1-445); assay: competition with [125I]PYY, membranes of transiently transfected cells, average of two experiments
T3 construct: also called HUMAN Clone; human Y5
T3 sequence: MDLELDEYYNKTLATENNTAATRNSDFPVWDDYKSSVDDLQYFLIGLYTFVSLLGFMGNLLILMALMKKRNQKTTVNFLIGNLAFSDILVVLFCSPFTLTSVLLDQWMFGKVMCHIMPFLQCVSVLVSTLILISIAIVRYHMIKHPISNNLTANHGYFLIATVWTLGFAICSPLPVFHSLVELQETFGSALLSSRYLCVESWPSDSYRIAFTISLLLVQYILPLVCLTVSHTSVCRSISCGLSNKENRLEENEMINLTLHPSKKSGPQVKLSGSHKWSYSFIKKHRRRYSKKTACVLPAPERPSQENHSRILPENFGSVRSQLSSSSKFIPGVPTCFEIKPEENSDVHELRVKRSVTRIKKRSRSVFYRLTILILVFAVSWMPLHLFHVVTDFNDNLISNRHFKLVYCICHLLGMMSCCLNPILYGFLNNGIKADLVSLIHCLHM

Human NPY Y5 receptor [14] = target: T3, Human NPY Y5 receptor; assay: competition with [125I]PYY, membranes of transiently transfected cells, one of the two experiments averaged
Human NPY Y5 receptor [15] = target: T3, Human NPY Y5 receptor; assay: cell-based or functional assay
[16] = target: T4, Rat NPY Y5 receptor, 6B clone (Y217.24.13.6B) (rat, UniProt Q63634 1-445); assay: competition with [125I]PYY, membranes of transiently transfected COS-7 cells
T4 construct: 445 amino acid protein; assayed as membranes of transiently transfected COS-7 cells; Has proline where Y555/Y589/Y861 have leucine in the first transmembrane domain; also called RAT 6B Clone; Y5 clone
T4 sequence: T2 sequence with L61P
Procedure: The binding assays were performed on GF/C Millipore (Bedford, Mass.) 96-well plates pretreated with 0.02% polyethylenimine (PEI) for at least 2 hours prior to use. The PEI was aspirated from the plates on a vacuum manifold immediately before the samples were added to the wells. All peptides, tissue and radioligand were diluted with binding buffer (25 mM Tris, 120 mM NaCl, 5 mM KCl, 1.2 mM KH₂PO₄, 2.5 mM CaCl₂, 1.2 mM MgSO₄, 0.1% BSA and 0.5 mg/ml bacitracin, pH 7.4).
Each point is the average value of triplicate determinations from a representative experiment. […] Kᵢ values were calculated from the IC₅₀ values using the Cheng-Prusoff correction, such that Kᵢ=IC₅₀/(1±(L/Kd)), where L is the radioligand concentration and Kd is the dissociation constant.

Human NPY Y5 receptor [17] = target: T3, Human NPY Y5 receptor; assay: competition with [125I]PYY, membranes of stably transfected 293 cells

T1 sequence (Q63447 whole entry): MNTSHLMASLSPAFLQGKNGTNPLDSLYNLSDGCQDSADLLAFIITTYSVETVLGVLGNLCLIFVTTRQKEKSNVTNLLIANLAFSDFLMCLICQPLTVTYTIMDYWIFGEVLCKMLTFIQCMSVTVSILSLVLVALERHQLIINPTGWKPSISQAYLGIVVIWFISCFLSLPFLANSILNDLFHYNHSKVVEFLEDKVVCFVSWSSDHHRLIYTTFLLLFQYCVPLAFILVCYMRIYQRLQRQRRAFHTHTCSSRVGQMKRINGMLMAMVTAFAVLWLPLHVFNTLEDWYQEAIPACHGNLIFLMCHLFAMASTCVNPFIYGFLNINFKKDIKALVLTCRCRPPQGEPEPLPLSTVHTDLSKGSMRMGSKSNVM
Sequence of (13-36)PYY (species not stated, Table 2) (peptide) (P10082 41-64): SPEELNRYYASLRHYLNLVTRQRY

Molecule: rat/human (Leu31Pro34)(3-36)NPY (from UniProt P01303 31-64) (peptide)
- IC50 [1]: 20 nM

Molecule: (32D-Trp)NPY (peptide)
- IC50 [2]: 7 nM

Molecule: porcine (13-36)NPY (from UniProt P01304 22-45) (peptide)
- Ki [3]: 7.9 nM and 7.5 nM
- IC50 [4]: 38 nM and 41 nM
- Ki [5]: 25 nM and 19 nM
- IC50 [6]: 40 nM

Molecule: [125I]PYY (radioiodinated peptide YY) (ligand)
- receptor density (Bmax) (fmol/mg protein) [7]: 140

Molecule: (13-36)PYY (species not stated, Table 2) (peptide)
- Ki [8]: 29 nM

Molecule: porcine (18-36)NPY (from UniProt P01304 27-45) (peptide)
- Ki [9]: 206 nM

Molecule: porcine (3-36)NPY (from UniProt P01304 12-45) (peptide)
- Ki [5]: 2.3 nM
- Ki [10]: 2 nM

Molecule: rat (13-36)NPY (as printed in Table 1) (from UniProt P07808 42-65) (peptide)
- Ki [11]: 89 nM and 65 nM
- Ki [9]: 86 nM

Molecule: APLEPVYPGDNATPEQMAQYAADLRRYINMLTRPRY (ligand, UniProt P01298 30-65, looked up, mature; also called hPP) [human pancreatic polypeptide]
- IC50 [2]: 4.9 nM
- EC50, forskolin-stimulated adenylate cyclase (cAMP radioimmunoassay), stably transfected 293S cells [12]: 1 nM
- Ki [9]: 4 nM
- Ki [8]: 2.5 nM
- IC50 [1]: 0.065 nM

Molecule: APLEPMYPGDYATHEQRAQYETQLRRYINTLTRPRY (ligand, UniProt P06303 30-65, looked up, mature; also called rPP; rat PP) [rat pancreatic polypeptide]
- Ki (Human NPY Y5 receptor [13]): 436 nM
- IC50 [2]: 325 nM
- Ki (Human NPY Y5 receptor [14]): 290 nM and 582 nM
- EC50, forskolin-stimulated adenylate cyclase (cAMP radioimmunoassay), stably transfected 293 cells (Human NPY Y5 receptor [15]): > 1000 nM
- EC50, forskolin-stimulated adenylate cyclase (cAMP radioimmunoassay), stably transfected 293S cells [12]: 112 nM
- Ki [16]: 62 nM
- Ki [9]: 296 nM
- Ki (Human NPY Y5 receptor [17]): 286 nM
- Ki [8]: 203 nM
- IC50 [1]: 0.071 nM
